Biological target: PB1 (influenza A/WSN/1933 polymerase subunit) (influenza A virus A/WSN/1933) (UniProt P03430)
Test: cell-based or functional assay

PB1 (influenza A/WSN/1933 polymerase subunit) (influenza A virus A/WSN/1933), sequence (P03430 whole entry): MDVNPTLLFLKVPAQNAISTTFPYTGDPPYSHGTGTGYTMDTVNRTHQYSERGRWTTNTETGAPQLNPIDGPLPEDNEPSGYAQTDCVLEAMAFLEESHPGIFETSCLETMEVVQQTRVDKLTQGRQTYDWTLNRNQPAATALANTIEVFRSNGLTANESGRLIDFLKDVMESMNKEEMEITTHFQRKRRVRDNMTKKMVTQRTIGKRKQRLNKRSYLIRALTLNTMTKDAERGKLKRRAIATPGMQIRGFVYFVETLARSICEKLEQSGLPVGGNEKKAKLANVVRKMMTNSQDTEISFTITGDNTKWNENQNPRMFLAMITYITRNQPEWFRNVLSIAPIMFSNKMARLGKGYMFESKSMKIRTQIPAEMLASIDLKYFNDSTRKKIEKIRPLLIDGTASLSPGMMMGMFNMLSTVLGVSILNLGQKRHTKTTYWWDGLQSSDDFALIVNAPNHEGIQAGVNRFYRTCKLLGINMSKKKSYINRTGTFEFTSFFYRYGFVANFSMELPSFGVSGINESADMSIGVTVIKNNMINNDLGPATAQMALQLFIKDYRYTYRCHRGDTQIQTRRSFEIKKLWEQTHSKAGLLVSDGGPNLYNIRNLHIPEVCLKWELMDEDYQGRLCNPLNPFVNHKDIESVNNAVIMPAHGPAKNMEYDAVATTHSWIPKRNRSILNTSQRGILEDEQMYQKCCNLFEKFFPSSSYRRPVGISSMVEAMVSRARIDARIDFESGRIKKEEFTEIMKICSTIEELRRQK

| Substance | virus titers [%] |
| --- | --- |
| PB2 195/2223 DPR | 50 |
| PB2 416/2189 DPR (from UniProt P03427 1-131) | 50 |
